Key:
Test in all cases: cell_activity
[1] = molecular target: SpCas9 K1003A K1003A (Streptococcus pyogenes) (UniProt Q99ZW2)
[2] = test system: SpCas9 H982A H982A (Streptococcus pyogenes)
[3] = molecular target: SpCas9 K855A (Streptococcus pyogenes) (UniProt Q99ZW2)
[4] = molecular target: SpCas9 R1060A R1060A (Streptococcus pyogenes) (UniProt Q99ZW2)
[5] = molecular target: SpCas9 K810A K810A (Streptococcus pyogenes) (UniProt Q99ZW2)
[6] = molecular target: SpCas9 K848A K848A (Streptococcus pyogenes) (UniProt Q99ZW2)
[7] = molecular target: SpCas9 R780A R780A (Streptococcus pyogenes) (UniProt Q99ZW2)
[8] = test system: SpCas9 R976A R976A (Streptococcus pyogenes)

Substance: EMX1(1) sgRNA guide ; EMX1 OT25
- activity ([1]; WT 10.5): 4.1 % indel
- activity ([2]; WT 10.5): 0.5 % indel
- activity ([3]; WT 10.5, on-target 25.1 in same table): 0.2 % indel
- activity ([4]; WT 10.5): 1.3 % indel
- activity ([5]; WT 10.5): 0.1 % indel
- activity ([6]; WT 10.5): 0.1 % indel
- activity ([7]; WT 10.5): 0 % indel
- activity ([8]; WT 10.5): 0.1 % indel

Substance: EMX1(1) sgRNA guide ; EMX1 OT46
- activity ([1]; WT 8.8): 2.8 % indel
- activity ([2]; WT 8.8): 0.4 % indel
- activity ([3]; WT 8.8): 0.3 % indel
- activity ([4]; WT 8.8): 1.8 % indel
- activity ([5]; WT 8.8): 0.1 % indel
- activity ([6]; WT 8.8): 0.1 % indel
- activity ([7]; WT 8.8): 0.1 % indel
- activity ([8]; WT 8.8): 0.1 % indel
